Consider ten sequences from the Immune Epitope Database (IEDB).

The target in assay [1] is HLA-A*11:01. Put plainly: IEDB peptide-MHC binding, purified MHC/competitive/radioactivity; ≥ and ≤ were set here for values at or beyond the usual limits of such assays. The following applies: source organism: Toxoplasma gondii.
Assay [2] deals with HLA-A*02:01. The description is as above. The following applies: source organism: Toxoplasma gondii.
In assay [3] the target is HLA-B*07:02. Described as above. The following applies: source organism: Toxoplasma gondii.
The target of assay [4] is HLA-B*15:42. As to the kind of experiment: IEDB peptide-MHC binding, purified MHC/competitive/fluorescence; filed as Kd, often an IC50 or EC50 that approximates it; ≥ and ≤ were set here for values at or beyond the usual limits of such assays.
Assay [5] deals with HLA-B*40:13. The description is as above. The following applies: source organism: Escherichia coli B171.
The target of assay [6] is HLA-B*83:01. Described as above.
Assay [7] concerns the target HLA-B*40:01. The assay is described as above. The following applies: source organism: Escherichia coli B171.
In assay [8] the target is HLA-A*32:07. The description is as above.
The target of assay [9] is HLA-B*39:01. Described as above. The following applies: source organism: Escherichia coli B171.
Assay [10] concerns the target HLA-B*45:06. Described as above.
Assay [11] concerns the target HLA-C*01:02. As to the kind of experiment: IEDB peptide-MHC binding, purified MHC/direct/fluorescence; filed as Kd, often an IC50 or EC50 that approximates it; ≥ and ≤ were set here for values at or beyond the usual limits of such assays. The following applies: source organism: Homo sapiens.
In assay [12] the target is HLA-B*35:01. The description is as above. The following applies: source organism: Salmonella enterica subsp. enterica serovar Typhi.
Assay [13] addresses HLA-B*15:01. Described as above.
In assay [14] the target is HLA-B*15:17. Put plainly: IEDB peptide-MHC binding, purified MHC/competitive/fluorescence; filed as Kd, often an IC50 or EC50 that approximates it; ≥ and ≤ were set here for values at or beyond the usual limits of such assays.
Assay [15] deals with HLA-B*57:01. The assay is described as above. The following applies: source organism: Salmonella enterica subsp. enterica serovar Typhi.
The target in assay [16] is HLA-B*44:02. The description is as above. The following applies: source organism: Salmonella enterica subsp. enterica serovar Typhi.
The target of assay [17] is HLA-B*35:01. As to the kind of experiment: IEDB peptide-MHC binding, cellular MHC/competitive/fluorescence; ≥ and ≤ were set here for values at or beyond the usual limits of such assays. The following applies: source organism: Influenza A virus H3N2.
In assay [18] the target is HLA-B*58:01. As to the kind of experiment: IEDB peptide-MHC binding, purified MHC/direct/fluorescence; filed as Kd, often an IC50 or EC50 that approximates it; ≥ and ≤ were set here for values at or beyond the usual limits of such assays.
For assay [19], the target named is HLA-B*35:01. As to the kind of experiment: IEDB peptide-MHC binding, purified MHC/competitive/fluorescence; filed as Kd, often an IC50 or EC50 that approximates it; ≥ and ≤ were set here for values at or beyond the usual limits of such assays. The following applies: source organism: Mycobacterium tuberculosis variant bovis BCG str. Pasteur 1173P2.
For assay [20], the target named is HLA-A*32:15. The assay is described as above. The following applies: source organism: Mycobacterium tuberculosis variant bovis BCG str. Pasteur 1173P2.
Assay [21] has as its target HLA-A*68:23. The assay is described as above. The following applies: source organism: Mycobacterium tuberculosis variant bovis BCG str. Pasteur 1173P2.
Assay [22] has as its target HLA-B*51:01. Described as above. The following applies: source organism: Mycobacterium tuberculosis variant bovis BCG str. Pasteur 1173P2.
Assay [23] concerns the target HLA-B*48:01. Put plainly: IEDB peptide-MHC binding, purified MHC/direct/fluorescence; filed as Kd, often an IC50 or EC50 that approximates it; ≥ and ≤ were set here for values at or beyond the usual limits of such assays. The following applies: source organism: Camelpox virus M-96.
Assay [24] concerns the target HLA-A*80:01. The assay is described as above. The following applies: source organism: Camelpox virus M-96.
The target in assay [25] is HLA-A*26:01. Described as above. The following applies: source organism: Variola virus.
In assay [26] the target is HLA-B*40:01. The description is as above. The following applies: source organism: Camelpox virus M-96.
Assay [27] concerns the target HLA-A*31:01. The description is as above. The following applies: source organism: Camelpox virus M-96.
Assay [28] has as its target HLA-B*27:05. The description is as above. The following applies: source organism: Camelpox virus M-96.
Assay [29] deals with HLA-B*39:01. The assay is described as above. The following applies: source organism: Variola virus.
In assay [30] the target is HLA-A*01:01. The description is as above. The following applies: source organism: Camelpox virus M-96.
In assay [31] the target is HLA-B*57:01. The assay is described as above. The following applies: source organism: Camelpox virus M-96.
Assay [32] has as its target HLA-B*46:01. The assay is described as above.
The target of assay [33] is HLA-A*02:01. The assay is described as above. The following applies: source organism: Camelpox virus M-96.
Assay [34] concerns the target HLA-B*15:09. The assay is described as above. The following applies: source organism: Variola virus.
Assay [35] concerns the target HLA-A*69:01. Put plainly: IEDB peptide-MHC binding, purified MHC/competitive/fluorescence; filed as Kd, often an IC50 or EC50 that approximates it; ≥ and ≤ were set here for values at or beyond the usual limits of such assays. The following applies: source organism: Taterapox virus.
Assay [36] concerns the target HLA-A*11:01. Described as above. The following applies: source organism: Taterapox virus.
The target in assay [37] is HLA-A*03:01. Described as above. The following applies: source organism: Taterapox virus.
The target of assay [38] is HLA-A*24:02. Put plainly: IEDB peptide-MHC binding, purified MHC/competitive/radioactivity; ≥ and ≤ were set here for values at or beyond the usual limits of such assays. The following applies: source organism: Homo sapiens.
Assay [39] deals with HLA-B*15:02. Put plainly: IEDB peptide-MHC binding, purified MHC/direct/fluorescence; filed as Kd, often an IC50 or EC50 that approximates it; ≥ and ≤ were set here for values at or beyond the usual limits of such assays. The following applies: source organism: Convict Creek 107 virus.
The target of assay [40] is HLA-A*02:01. Put plainly: IEDB peptide-MHC binding, binding assay; filed as Kd, often an IC50 or EC50 that approximates it; ≥ and ≤ were set here for values at or beyond the usual limits of such assays. The following applies: source organism: Severe acute respiratory syndrome coronavirus 2 Indonesia/JI-ITD-12202V/2020.
Where [41] appears, read: source organism: Escherichia coli B171.
[42] abbreviates: source organism: Salmonella enterica subsp. enterica serovar Typhi.
The mark [43] stands for this setting: source organism: Mycobacterium tuberculosis variant bovis BCG str. Pasteur 1173P2.
Where [44] appears, read: source organism: Camelpox virus M-96.
Where [45] appears, read: source organism: Convict Creek 107 virus.

As to AVVSLLRLLK, the IC50 (in general, the concentration that gives 50% inhibition) is 6.5 nM in assay [1], 11300 nM in assay [2] and at least 50000 nM in assay [3].

For HELSLFWPL, the Kd (in general, the equilibrium constant for the complex coming apart) in assay [4] (setting [41]) is at least 5000 nM; in assay [5], 30.2 nM; in [6] (setting [41]), at least 5000 nM; in assay [7] it was 2.5 nM; in assay [8] (setting [41]), 58.2 nM; in assay [9], 0.2 nM. For the same sequence, in [10] (setting [41]), the Kd was at least 5000 nM.

With HLSSSQLQSL, the Kd in assay [11] is at most 0.1 nM.

For the sequence IVLLCYGGW, the Kd in [12] is 2530 nM; in assay [13] (setting [42]) it was 6180 nM; in assay [14] (setting [42]), 175 nM; in assay [15] it was 498 nM; in [16], at least 20000 nM.

Sequence LPFDKPTIM displayed a half-maximal inhibitory concentration (IC50) in [17] of 1600 nM.

Regarding MTMITPPTF, the dissociation constant (Kd) in assay [18] (source organism: Mycobacterium tuberculosis) is 51.3 nM; in assay [19], 111 nM; in [4] (setting [43]), at least 5000 nM; in assay [20], 19.2 nM; in assay [21], 4.4 nM; in assay [6] (setting [43]) it was at least 5000 nM. The Kd is 9.3 nM in assay [8] (setting [43]), at least 20000 nM in assay [22] and at least 5000 nM in [10] (setting [43]).

Regarding NTDAFSREY, the Kd is at least 20000 nM in assay [23]; 567 nM in assay [24]; at least 20000 nM in assay [13] (setting [44]); 984 nM in assay [25]; at least 20000 nM in [18] (setting [44]); at least 20000 nM in assay [26]. Moreover, the Kd in [27] was at least 20000 nM; in [28], at least 20000 nM; in assay [29], at least 20000 nM; in assay [30], 7 nM; in assay [31], at least 20000 nM; in [32] (setting [44]), at least 20000 nM. Besides, the Kd in assay [33], in assay [34], in assay [35], in assay [36], in [37] and in [14] (source organism: Taterapox virus) was at least 20000 nM in each case.

Consider SFSTTINYTL, for which, in assay [38], the IC50 was 800 nM.

Regarding VLFKTESGF, the Kd in assay [13] (setting [45]) was 11.8 nM; in [32] (setting [45]) it was at least 20000 nM; in [39], 47 nM.

Turning to YLQPRTFLL, in assay [40], the Kd came out at 75 nM.
